Here are results for two molecules from paper PMC8521288.

Where two headings read alike, the source gives them in different places.

Data set [1] deals with T1, human MMP-9 (hMMP-9) (Homo sapiens, UniProt P14780 107-457). Description: AuNS aggregation by strand displacement.
Data set [2] has as its target T1, human MMP-9 (hMMP-9). Description: AuNS aggregation by strand displacement. The source holds these as a separate data set.

T1 sequence (P14780 107-457): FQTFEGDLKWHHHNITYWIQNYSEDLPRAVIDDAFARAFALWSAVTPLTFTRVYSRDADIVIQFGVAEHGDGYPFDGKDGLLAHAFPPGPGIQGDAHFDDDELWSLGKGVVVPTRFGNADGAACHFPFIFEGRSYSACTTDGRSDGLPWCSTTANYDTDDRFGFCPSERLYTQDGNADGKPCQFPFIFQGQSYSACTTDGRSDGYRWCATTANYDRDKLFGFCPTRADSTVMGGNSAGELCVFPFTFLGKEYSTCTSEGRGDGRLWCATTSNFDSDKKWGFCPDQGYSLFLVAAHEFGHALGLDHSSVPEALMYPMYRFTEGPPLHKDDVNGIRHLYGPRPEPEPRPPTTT

B1: control aptamer (annealed to control comp-1 on cAuNS-1; control sensor) (mixed)
DNA 1: CCGGTGTTCGAGACAAGAGTCCAGGG
DNA 2: CTCTCGAACACCGGAA
modifications: 3' ThioMC3-D (thiol) on control comp-1
Take B1: the binding result in the data set with human MMP-9 (hMMP-9) [1] is on record as “no binding”.

B2: MMP-9 aptamer (annealed to comp-1 on AuNS-1; MMP sensor) (mixed)
DNA 1: TCGTATGGCACGGGGTTGGTGTTGGGTTGG
DNA 2: GGTGTGCCATACGAAA
modifications: 3' ThioMC3-D (thiol) on comp-1
For the molecule B2, the binding result with human MMP-9 (hMMP-9) [2] is listed as “binds”.
